Assay [1] addresses HLA-A*0201 molecule on human T2 cells (human). Kind of assay: T2 cells expressing HLA-A*0201, anti-HLA-A2-PE, FACS (Example 9).
For assay [2] the target is unchanged. Kind of assay: T2 cells expressing HLA-A*0201, anti-HLA-A2-PE, FACS. The note with it: remark: other sources report otherwise.

On to IVGAETFYV (modifications not checked) [reference peptide HIV pol 589-597, P04585 1021-1029], for which, in assay [1], the In vitro binding affinity (relative to reference peptide HIV pol 589-597) came to 1.

In assay [2], ILDEAYVMA [EGFR-H] showed a Concentration of peptide that induces 20% of HLA-A2 expression of 2.8 µM, an In vitro binding affinity (relative to reference peptide HIV pol 589-597) of 0.2, a mean relative fluorescence intensity at 1.5625 µM peptide (% of HIV peptide) of 12 and a mean relative fluorescence intensity at 3.125 µM peptide (% of HIV peptide) of 28.6. For the same molecule, in assay [2], the mean relative fluorescence intensity at 6.25 µM peptide (% of HIV peptide) is 33.7, the mean relative fluorescence intensity at 25 µM peptide (% of HIV peptide) amounted to 91.5, the mean relative fluorescence intensity at 50 µM peptide (% of HIV peptide) was determined as 107 and the mean relative fluorescence intensity at 100 µM peptide (% of HIV peptide) was 87.4.

(Values after patent publication US20210113678A1.)
